# Assay results taken from PMC3814058.
# How the values were obtained:
# [1] = target: GFP–STIM2K dimer (oxidized, disulphide-linked through Cys725) (human) (UniProt Q9P246); experiment: pull-down; competition: GFP–STIM2K dimer bound to Ca^2+/CaM beads, eluted with 75 μM purified CaM or CaM mutant in 1 mM CaCl2; percent of bound GFP–STIM2K eluted
# [2] = target: GFP–STIM2K dimer (oxidized, disulphide-linked through Cys725) (human) (UniProt Q9P246)
# [3] = target: GFP–STIM2K dimer (oxidized, disulphide-linked through Cys725) (human) (UniProt Q9P246); remark: listed apart in the source
# [4] = target: GFP–STIM2K dimer (oxidized, disulphide-linked through Cys725) (human) (UniProt Q9P246); remark: listed apart in the source
# [5] = target: GFP–Zipper–STIM1K (GFP, tetramerization domain of the Gcn4 leucine zipper variant pLI, STIM1 K-rich domain) (yeast | human) (UniProt Q13586); experiment: SEC; Superdex 200 10/300 GL in HK buffer (25 mM HEPES/KOH pH 7.5, 150 mM KCl, 1 mM DTT), 0.5 ml/min; elution compared with marker proteins
# Sequence of GFP–STIM2K dimer (oxidized, disulphide-linked through Cys725) (human) (Q9P246 720-746): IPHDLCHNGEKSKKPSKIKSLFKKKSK
Substance,percent of GFP–STIM2K eluted from the Ca^2+/CaM beads [1] [%],"reduction of binding of 2 μM GFP–STIM2K dimer to PC liposomes with 5 mol% PI(4,5)P2 after pre-incubation with 5 μM CaM in 100 μM CaCl2 (5-fold against no CaCl2, 3.8-fold against 100 μM CaCl2) [2] [%]","reduction of binding of 2 μM GFP–STIM2K dimer to PM-like liposomes with 2 mol% PI(4,5)P2 after pre-incubation with 5 μM CaM in 50, 100 or 200 μM CaCl2 (2.1-, 2.6- and 3.4-fold against CaCl2 alone) [3] [%]","reduction of binding of 2 μM GFP–STIM2K dimer to PM-like liposomes with 2 mol% PI(4,5)P2 after pre-incubation with 5 μM CaM in 100 μM CaCl2, against 100 μM CaCl2 alone [4] [%]",stoichiometry N [5]
"CaM1–4m (human CaM1–4 mutant, all four EF-hand domains mutated) (from UniProt P0DP23 1-149) (natural protein)",7,,,,
His(6)-tagged human CaM (calmodulin) (from UniProt P0DP23 1-149) (natural protein),45,74,71,61,
"GFP–Zipper–STIM1K (GFP, tetramerization domain of the Gcn4 leucine zipper variant pLI, STIM1 K-rich domain) (from UniProt Q13586-1 662-685)",,,,,4
